Source: article PMC5562914, “Activation of an anti-bacterial toxin by the biosynthetic enzyme CysK: mechanism of binding, interaction specificity and competition with cysteine synthase” (Scientific Reports, 2017)
Several values for one entry are separate records, joined by “and”; a condition that tells them apart may be missing. Equal entries are not always repeated.

Legend:
[1] = molecular target: CysK from Haemophilus influenzae, His6 tag removed with thrombin (Haemophilus influenzae) (UniProt P45040); test: other fluorescence titration; PLP fluorescence emission at 500 nm; HiCysK (300 nM) or NlCysK (860 nM) titrated with CdiA-CT; read after 20 min; binding isotherm (Eq. 1)
[2] = molecular target: CysK from Neisseria lactamica ATCC 23970, His6-tagged (Neisseria lactamica ATCC 23970); test: as above
[3] = molecular target: the molecule itself; test: SEC; Ultrogel AcA44 column, 0.2 mL/min, buffer A
[4] = molecular target: T1, E. coli CysK (EcCysK), O-acetyl-L-Ser sulfhydrylase (E. coli, UniProt P0ABK5 1-323, pyridoxal 5'-phosphate (PLP) cofactor); test: other fluorescence titration; PLP fluorescence emission at 500 nm; 80 nM EcCysK titrated with CdiA-CT; data read after 20 min; quadratic tight-binding equation (Eq. 2); 20 C; details: both partners purified
T1 construct: CysK of E. coli; the E. coli cysK gene was amplified and ligated to pCH10068 (pSH21::trxA-TEV-cysK) for the purification of untagged EcCysK; not shown: TrxA, N-terminal, cleaved
T1 sequence (looked up): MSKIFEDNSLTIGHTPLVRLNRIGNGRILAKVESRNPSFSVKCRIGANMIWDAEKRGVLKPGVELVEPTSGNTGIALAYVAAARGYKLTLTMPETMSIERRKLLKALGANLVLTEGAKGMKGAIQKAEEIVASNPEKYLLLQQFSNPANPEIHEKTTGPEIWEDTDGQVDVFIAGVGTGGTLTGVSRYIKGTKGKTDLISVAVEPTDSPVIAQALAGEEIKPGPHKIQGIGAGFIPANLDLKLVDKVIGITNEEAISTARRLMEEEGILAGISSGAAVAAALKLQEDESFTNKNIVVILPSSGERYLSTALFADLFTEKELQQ

[5] = molecular target: T1, E. coli CysK (EcCysK), O-acetyl-L-Ser …; test: other fluorescence titration; PLP fluorescence (excitation 412 nm, emission 500 nm); 1 uM EcCysK titrated with CdiA-CT to saturation (stoichiometric titration); 20 C; details: both partners purified
[6] = molecular target: T1, E. coli CysK (EcCysK), O-acetyl-L-Ser …; test: inhibition of enzyme activity (sulfhydrylase); 6 nM EcCysK titrated with CdiA-CT; buffer A with 2 mM O-acetyl-L-Ser, 0.6 mM Na2S, 60 nM BSA; Morrison equation gives an apparent IC50, converted to Ki (Eq. 4); details: both partners purified
[7] = molecular target: T1, E. coli CysK (EcCysK), O-acetyl-L-Ser …; test: inhibition of enzyme activity (sulfhydrylase); as a3 (6 nM EcCysK titrated with CdiA-CT) in the presence of 2.4 uM CdiI; details: both partners purified
[8] = molecular target: T2, CdiA-CT toxin domain from uropathogenic Escherichia coli 536, Q0T963; test: stopped-flow fluorescence; as a5, CysK concentration varied, 37 C; details: other: stopped-flow fluorescence
T2 chain: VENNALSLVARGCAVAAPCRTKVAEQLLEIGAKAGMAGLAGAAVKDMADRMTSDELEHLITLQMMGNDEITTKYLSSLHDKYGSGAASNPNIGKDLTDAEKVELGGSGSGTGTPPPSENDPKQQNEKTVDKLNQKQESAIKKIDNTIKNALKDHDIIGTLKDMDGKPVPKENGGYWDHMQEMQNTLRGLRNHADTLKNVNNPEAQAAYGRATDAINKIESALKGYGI

[9] = molecular target: T2, CdiA-CT toxin domain from uropathogenic …; test: stopped-flow fluorescence; as a5, CysK concentration varied, 5 C; details: other: stopped-flow fluorescence
[10] = molecular target: T2, CdiA-CT toxin domain from uropathogenic …; test: stopped-flow fluorescence; PLP fluorescence, excitation 412 nm; buffer A; pseudo-first order, 200 nM EcCysK or 270 nM CdiA-CT fixed and the partner varied; 20 C; slope of kobs against concentration; details: other: stopped-flow fluorescence

CdiA-CT toxin domain from uropathogenic Escherichia coli 536 (from UniProt Q0T963 3016-3242) (domain or fragment)
Kd [1]: 3300 nM | Kd [2]: 6400 nM

B1: E. coli CysE (EcCysE), serine O-acetyltransferase (enzyme, UniProt P0A9D4 1-273, looked up)
chain: MSCEELEIVWNNIKAEARTLADCEPMLASFYHATLLKHENLGSALSYMLANKLSSPIMPAIAIREVVEEAYAADPEMIASAACDIQAVRTRDPAVDKYSTPLLYLKGFHALQAYRIGHWLWNQGRRALAIFLQNQVSVTFQVDIHPAAKIGRGIMLDHATGIVVGETAVIENDVSILQSVTLGGTGKSGGDRHPKIREGVMIGAGAKILGNIEVGRGAKIGAGSVVLQPVPPHTTAAGVPARIVGKPDSDKPSMDMDQHFNGINHTFEYGDGI
notes: CysE of E. coli; cysE amplified with primers CH3642/CDI235 (the fragment that also gives 'native EcCysE'); not shown: His6-thioredoxin (His6-TrxA), N-terminal, cleaved
stoichiometry N [3]: 6

B2: CdiA-CT toxin domain from uropathogenic Escherichia coli 536 (domain or fragment)
chain: T2 chain
notes: C-terminal toxin domain (CdiA-CT) of CdiA, uropathogenic E. coli 536
Kd [4]: 10 ± 11 nM | stoichiometry N [5]: 1.1 CdiA-CT:EcCysK | IC50 [6]: 15.4 ± 0.6 nM | Ki [6]: 11 ± 0.4 nM

B3: CdiA-CT in the presence of excess CdiI immunity protein (CdiA-CT:CdiI) (complex)
chain 1: T2 chain
chain 2: MITLRKLIGNINMTKEPEQQSPLELWFERIIDVPLEKLTVEDLCRAIRQNLCIDQLMPRVLEVLTKEPLAGEYYDGELIAALSTIKGEDLKDQKSTFTQIRQLINQLEPSDINDDLRKDILKINQIIV
Ki [7]: 6.4 ± 0.5 nM

B4: E. coli CysK (EcCysK), O-acetyl-L-Ser sulfhydrylase (protein)
chain: T1 sequence (looked up)
second-order rate constant k3/Kd (slope of kobs against CysK concentration, 37 °C) [8]: 0.099 ± 0.019 µM^−1·s^−1 (37 °C) | second-order rate constant k3/Kd (slope of kobs against CysK concentration, 5 °C) [9]: 0.005 ± 0.0003 µM^−1·s^−1 (5 °C) | second-order rate constant k3/Kd (slope of kobs against protein concentration) [10]: 19000 ± 7000 M⁻¹ s⁻¹ and 17000 ± 7000 M⁻¹ s⁻¹
